According to publication PMC7951984:
Ends that are not written are not given here.

B1: Plutella xylostella tachykinin peptide 1 (PxTK1) (peptide)
peptide: APSGFLGMR
modifications: ends and bridges not checked

Biological target: Plutella xylostella tachykinin receptor (PxTKR) (Plutella xylostella)

Molecule	EC50 of the cAMP response (cAMP-Glo assay) of HEK293 cells stably expressing PxTKR, peptide from 10 pM to 100 μM [nM]
Plutella xylostella tachykinin peptide 3 (PxTK3)	87.7
B1	32
